Measurements taken from US20060020109A1 (Harvard, published 2006).

Tests used:
[1] = biological target: HLA-DR2 (DRB1*1501) on antigen presenting cells (MGAR, L466) (human); assay: cell-based or functional assay
[2] = biological target: T1, soluble recombinant HLA-DR2 molecules (MHC class II HLA-DR2 protein) (human); assay: competition ELISA on soluble HLA-DR2; competitor biotinylated Cop 1 (1.5 µM)
T1 construct: Soluble, empty protein from Drosophila S2 cells, captured on plates by antibody LB3.1; also called MHC class II DR2 protein; recombinant HLA-DR2 protein

| Inhibition of IL-2 production (%), Hy1B [1] [%] | IC50 [2] [µM] | Binder |
| --- | --- | --- |
| 3 | > 1000 | AKAAAAEYAAAAAAA [synthetic peptide #51] |
| 59 | > 1000 | AKEAYAAYKAAAAAA [synthetic peptide #78] |
| 13 | > 1000 | KEKAAAAYAAAAAAA [synthetic peptide #47] |
| 41 | > 1000 | AEAKYEAYAAAAAAA [synthetic peptide #67] |
| 32 | > 1000 | AKEAYAAAAAAAAAA [synthetic peptide #39] |
| 17 | > 1000 | AKEEYAAAAAAAAAA [synthetic peptide #38] |
| 42 | > 1000 | EKEAYAAYKAAAAAA [synthetic peptide #92] |
| 22 | > 1000 | AKEEYAAYAAAAAAA [synthetic peptide #62] |
| 0 | > 1000 | AKEAYAAYAAAAAAA [synthetic peptide #57] |
| 25 | > 1000 | EAAKYAAYKAAAAAA [synthetic peptide #85] |
| 29 | > 1000 | EAKAYAAYKAAAAAA [synthetic peptide #86] |
| 50 | > 1000 | AEAKYAAYKAAAAAA [synthetic peptide #79] |
| 22 | > 1000 | AEKEYAAAAAAAAAA [synthetic peptide #40] |
| 0 | > 1000 | AEAKYAAYAAAAAAA [synthetic peptide #60] |
| 36 | > 1000 | EEKAYAAAAAAAAAA [synthetic peptide #105] |
| 22 | > 1000 | EAKEYAAYAAAAAAA [synthetic peptide #74] |
| 52 | > 1000 | AAAEYAAYKAAAAAA [synthetic peptide #76] |
| 36 | > 1000 | AEKAAAAYAAAAAAA [synthetic peptide #49] |
| 34 | > 1000 | AAEKVAAAAAAAAAA [synthetic peptide #114] |
| 22 | > 1000 | AAKAYEAYAAAAAAA [synthetic peptide #65] |
| 40 | > 1000 | EKAAYAAYKAAAAAA [synthetic peptide #87] |
| 25 | > 1000 | EAEKYAAYAAAAAAA [synthetic peptide #71] |
| 61 | > 1000 | AAEKYAAYKAAAAAA [synthetic peptide #77] |
| 29 | > 1000 | AKAEYAAYAAAAAAA [synthetic peptide #59] |
| 0 | > 1000 | EKAAYAAAAAAAAAA [synthetic peptide #44] |
| 29 | > 1000 | AKEKYAAYAAAAAAA [synthetic peptide #63] |
| 38 | > 1000 | AAEAVAAAAAAAAAA [synthetic peptide #118] |
| 16 | > 1000 | AAKEYAAYAAAAAAA [synthetic peptide #58] |

The next lines start with the binder.

| Binder | Inhibition of IL-2 production (%), Hy1B [1] [%] | IC50 [2] [µM] |
| --- | --- | --- |
| AAEKYAAYAAAAAAA [synthetic peptide #55] | 30 | > 1000 |
| AEKKYAAYAAAAAAA [synthetic peptide #54] | 38 | > 1000 |
| AKKEYAAAAAAAAAA [synthetic peptide #37] | 5 | > 1000 |
| AAKEYAAYKAAAAAA [synthetic peptide #84] | 42 | > 1000 |
| AAKKYEAYAAAAAAA [synthetic peptide #68] | 41 | > 1000 |
| AKEEYAAYKAAAAAA [synthetic peptide #82] | 47 | > 1000 |
| EKEAAAAYAAAAAAA [synthetic peptide #46] | 0 | > 1000 |
| AKAEAAAYAAAAAAA [synthetic peptide #48] | 27 | > 1000 |
| AEEKYAAYKAAAAAA [synthetic peptide #83] | 43 | > 1000 |
| EAEAYAAYKAAAAAA [synthetic peptide #88] | 55 | > 1000 |
| AAAKVAAAAAAAAAA [synthetic peptide #116] | 30 | > 1000 |
| AAEAYAAAAAAAAAA [synthetic peptide #117] | 25 | > 1000 |
| AEEKYAAYAAAAAAA [synthetic peptide #56] | 16 | > 1000 |
| EEAKYAAYKAAAAAA [synthetic peptide #91] | 54 | > 1000 |
| EAKAYAAYAAAAAAA [synthetic peptide #75] | 19 | > 1000 |
| EAAEYAAYKAAAAAA [synthetic peptide #89] | 41 | > 1000 |
| AEEAYAAYKAAAAAA [synthetic peptide #80] | 30 | > 1000 |
| AAEKYEAYAAAAAAA [synthetic peptide #69] | 45 | > 1000 |
| EEAAYAAYKAAAAAA [synthetic peptide #90] | 22 | > 1000 |
| EKKAYAAAAAAAAAA [synthetic peptide #41] | 7 | > 1000 |
| EKAEYAAYAAAAAAA [synthetic peptide #72] | 39 | > 1000 |
| AAEKAAAAAAAAAAA [synthetic peptide #119] | 26 | > 1000 |
| AAAKYAAAAAAAAAA [synthetic peptide #115] | 25 | > 1000 |
| AKAEYAAYKAAAAAA [synthetic peptide #81] | 28 | > 1000 |
| EKEAYAAYAAAAAAA [synthetic peptide #73] | 23 | > 1000 |
| AAAEYKAYAAAAAAA [synthetic peptide #70] | 24 | > 1000 |
| AAEEYKAYAAAAAAA [synthetic peptide #61] | 35 | > 1000 |
| AEAEYKAYAAAAAAA [synthetic peptide #66] | 43 | > 1000 |
